{
  "source": "patent US7244826B1",
  "about": "“Internalizing ERB2 antibodies” (The Regents of the University of California, priority 1998, dated 2007)",
  "key": {"[1]": {"target": "ErbB2 on cells (SKBR3, SK-OV-3, MCF7 tumor cell lines) (UniProt P04626)", "assay": "5.0 × 10^11 phage on about 1.0 × 10^5 SKBR3 cells at 37° C.; surface bound phage eluted with low pH glycine, titered on E. coli TG1"}, "[2]": {"target": "ErbB2 on cells (SKBR3, SK-OV-3, MCF7 tumor cell lines) (UniProt P04626)", "assay": "cell-based or functional assay"}, "[3]": {"tested_on": "SKBR3 cells", "format": "cell-based"}, "[4]": {"tested_on": "tumor", "conditions": "cited from earlier work"}, "[5]": {"tested_on": "SK-OV-3 cells", "conditions": "in vitro; cited from earlier work"}, "[6]": {"tested_on": "SKBR3 cells", "format": "cell-based", "remark": "listed apart in the source"}, "[7]": {"target": "ErbB2 on cells (SKBR3, SK-OV-3, MCF7 tumor cell lines) (UniProt P04626)"}, "[8]": {"target": "T1, ErbB2 (form in the assay not stated) (UniProt P04626 23-1255)", "T1 construct": "also called c-erbB2", "assay": "method and form of ErbB2 not stated"}, "[9]": {"tested_on": "SK-OV-3 cells", "assay": "Staining of SK-OV-3 cells by native scFv", "format": "cell-based", "conditions": "moderate ErbB2 expression"}, "[10]": {"tested_on": "SKBR3 cells", "assay": "Staining of SKBR3 cells by phage antibodies or native scFv", "conditions": "high ErbB2 expression; for staining of SKBR3 cells by phage antibody: phage-displayed"}, "[11]": {"target": "ErbB2 (Homo sapiens, UniProt P04626)", "assay": "Epitope mapping competition assay: inhibition of phage binding by soluble scFv", "from_the_text": "Bound phages were detected with an anti-M13 biotinylated Ab and streptavidin-PE.\nNeither of these phage were isolated when the same library was selected on recombinant ErbB2. […] This was confirmed using a competition assay (FIG. 2)."}, "[12]": {"tested_on": "normal breast cell line HST578", "assay": "Staining of normal breast cell line by phage antibodies or native scFv", "format": "cell-based"}, "[13]": {"tested_on": "MCF7 cells", "assay": "Staining of MCF7 cells by phage antibodies or native scFv", "format": "cell-based", "conditions": "low ErbB2 expression"}, "[14]": {"assay": "Gel filtration of native scFv", "format": "physicochemical"}, "[15]": {"conditions": "increasing concentrations of soluble scFv, bound phage by anti-M13 biotinylated Ab and streptavidin-PE, MFI"}},
  "note": "Entries after “also recorded” stand apart in the source; their conditions may differ. Where two headings read alike, the source gives them in different places.",
  "data": [
    {"molecule": "C6.5 diabody phage", "values": [
      {"measurement": "titer of cell surface bound phage, 1st glycine wash", "setting": "[1]", "result": "1.8e+07"},
      {"measurement": "titer of cell surface bound phage, 2nd glycine wash", "setting": "[1]", "result": "2.8e+06"},
      {"measurement": "cells that had internalized phage (confocal microscopy, SKBR3 cells)", "setting": "[2]", "result": 20, "unit": "%"},
      {"measurement": "phage titer, Lysed cell fraction (internalized phage)", "setting": "[2]", "result": "1.7e+07"}
    ]},
    {"molecule": "C6.5 diabody: dimeric scFv from C6.5 V-genes, linker between VH and VL shortened from 15 to 5 amino acids", "values": [
      {"measurement": "increase of titer after cell lysis from the second glycine wash", "setting": "[3]", "result": "> 50", "unit": "fold"},
      {"measurement": "more phage bound to the cell surface than the anti-Botulinum phage", "setting": "[3]", "result": 30, "unit": "times"},
      {"measurement": "phage titer, 1st glycine wash", "setting": "[3]", "result": "1.8 × 10^7"},
      {"measurement": "phage titer, 2nd glycine wash", "setting": "[3]", "result": "2.8 × 10^6"},
      {"measurement": "phage titer, lysed cell fraction", "setting": "[3]", "result": "1.7 × 10^7"},
      {"measurement": "recovery of phage from inside the cell, higher than for anti-Botulinum phage", "setting": "[3]", "result": 200, "unit": "fold"},
      {"measurement": "% ID/g tumor", "setting": "[4]; at 24 hours, diabody study", "result": 6.5, "unit": "% ID/g"},
      {"measurement": "tumor:organ AUC ratios", "setting": "[4]; retentions examined over 72 hours, cumulative AUC", "result": "greater than reported for other monovalent or divalent scFv molecules"},
      {"measurement": "apparent affinity compared to C6.5 scFv", "setting": "[5]", "result": "significantly higher"},
      {"measurement": "cells that had internalized phage", "setting": "[6]; 37° C.", "result": "~20", "unit": "%"}
    ]},
    {"molecule": "C6.5 phage (anti-ErbB2 C6.5 scFv displayed on phage)", "values": [
      {"measurement": "titer of cell surface bound phage, 1st glycine wash", "setting": "[1]", "result": "1.2e+07"},
      {"measurement": "titer of cell surface bound phage, 2nd glycine wash", "setting": "[1]", "result": "5.2e+06"},
      {"measurement": "phage titer, Lysed cell fraction (internalized phage)", "setting": "[2]", "result": "6.8e+07"}
    ]},
    {"molecule": "irrelevant anti-Botulinum phage (scFv)", "values": [
      {"measurement": "phage titer, Lysed cell fraction (internalized phage)", "setting": "[2]", "result": 600000},
      {"measurement": "titer of cell surface bound phage, 1st glycine wash", "setting": "[7]", "result": 600000},
      {"measurement": "titer of cell surface bound phage, 2nd glycine wash", "setting": "[7]", "result": 100000}
    ]},
    {"molecule": "F5 scFv (native purified soluble scFv) (scFv, not shown: small tags and cut ends, also called 3TF5; scFv-F5) scFv: QVQLVESGGGLVQPGGSLRLSCAASGFTFRSYAMSWVRQAPGKGLEWVSAISGRGDNTYYADSVKGRFTISRDNSKNTLYLQMNSLRAEDTAVYYCAKMTSNAFAFDYWGQGTLVTVSSGGGGSGGGGSGGGGSQSVLTQPPSVSGAPGQRVTISCTGSSSNIGAGYGVHWYQQLPGTAPKLLIYGNTNRPSGVPDRFSGFKSGTSASLAITGLQAEDEADYYCQFYDSSLSGWVFGGGTKLTVLG", "values": [
      {"measurement": "Kd", "setting": "[8]", "result": 320, "unit": "nM"}
    ]},
    {"molecule": "F5: internalizing human anti-c-erbB-2 scFv, SEQ ID NO: 1, ATCC plasmid deposit PTA-7843, also referred to as 3TF5 (protein) scFv: QVQLVESGGGLVQPGGSLRLSCAASGFTFRSYAMSWVRQAPGKGLEWVSAISGRGDNTYYADSVKGRFTISRDNSKNTLYLQMNSLRAEDTAVYYCAKMTSNAFAFDYWGQGTLVTVSSGGGGSGGGGSGGGGSQSVLTQPPSVSGAPGQRVTISCTGSSSNIGAGYGVHWYQQLPGTAPKLLIYGNTNRPSGVPDRFSGFKSGTSASLAITGLQAEDEADYYCQFYDSSLSGWVFGGGTKLTVLG", "values": [
      {"measurement": "staining of SK-OV-3 cells by native purified scFv", "setting": "[9]", "result": "intermediate staining"},
      {"measurement": "staining of SKBR3 cells by native purified scFv", "setting": "[10]; native purified scFv", "result": "intensely stain"},
      {"measurement": "staining of SKBR3 cells by phage antibody", "setting": "[10]", "result": "intensely stain"},
      {"measurement": "staining of SKBR3 cells by phage antibody", "setting": "[10]; listed as 3TF5 phage", "result": "more intensely than C6.5 phage"},
      {"measurement": "epitope of F5 and C1 relative to each other", "setting": "[11]; competition assay", "result": "recognize the same epitope"},
      {"measurement": "epitope relative to C6.5", "setting": "[11]; competition assay", "result": "a different epitope than C6.5"},
      {"measurement": "epitope relative to Genentech anti-ErbB2 antibody 4D5", "setting": "[11]; competition assay", "result": "recognize a different epitope"},
      {"measurement": "inhibition of binding of C6.5 phage by soluble scFv", "setting": "[11]; [15]", "result": "not"},
      {"measurement": "inhibition of binding of F5 or C1 phage by soluble scFv", "setting": "[11]; [15]", "result": "inhibited"},
      {"measurement": "staining of normal breast cell line HST578 by native purified scFv", "setting": "[12]", "result": "do not stain"},
      {"measurement": "staining of MCF7 cells by native purified scFv", "setting": "[13]; native purified scFv", "result": "minimal staining"},
      {"measurement": "staining of MCF7 cells by phage antibody", "setting": "[13]; phage-displayed", "result": "much more intensely then C6.5"},
      {"measurement": "internalization of native purified scFv by SKBR3 cells (in words)", "setting": "[6]", "result": "efficiently internalized; also recorded: internalized faster than C6.5"},
      {"measurement": "internalization of phage by SKBR3 cells at 4° C. (in words)", "setting": "[6]", "result": "no internalization"},
      {"measurement": "cells that had internalized phage", "setting": "[6]; 37° C.", "result": "greater than 95%"},
      {"measurement": "internalization of phage by SKBR3 cells (in words)", "setting": "[6]; 37° C.", "result": "internalized"},
      {"measurement": "oligomeric state by gel filtration", "setting": "[14]", "result": "only as a monomer with no appreciable dimerization or aggregation"}
    ]}
  ]
}
